Data: article PMC10892425

Key:
[1] = test system: VV-GMCSF-Lact intact vaccinia virus particles (surface protein target not identified) (Vaccinia virus, LIVP strain (recombinant VV-GMCSF-Lact)); experiment: flow cytometry
[2] = test system: VV-GMCSF-Lact intact vaccinia virus particles (surface protein target not identified) (Vaccinia virus, LIVP strain (recombinant VV-GMCSF-Lact)); experiment: MST

Sequence: GTAACCAGCCATCACCCTATTATCTCATTATCTCGTTTTCCCTATGCGGCATAGG [NV14t_56 (8NV37_14 variant 2_12-67)]
- Kd [1]: 353 nM
- K half [2]: 1.49e+09 PFU/mL
